In patent US20120301476A1 (TORAY INDUSTRIES, published 2012):

Tests used:
[1] = target: T1, human CAPRIN-1 protein on the cell surfaces of human cancer cell lines and in human cancer tissues (human, UniProt Q14444 2-709); assay: cell-based or functional assay
T1 sequence (looked up): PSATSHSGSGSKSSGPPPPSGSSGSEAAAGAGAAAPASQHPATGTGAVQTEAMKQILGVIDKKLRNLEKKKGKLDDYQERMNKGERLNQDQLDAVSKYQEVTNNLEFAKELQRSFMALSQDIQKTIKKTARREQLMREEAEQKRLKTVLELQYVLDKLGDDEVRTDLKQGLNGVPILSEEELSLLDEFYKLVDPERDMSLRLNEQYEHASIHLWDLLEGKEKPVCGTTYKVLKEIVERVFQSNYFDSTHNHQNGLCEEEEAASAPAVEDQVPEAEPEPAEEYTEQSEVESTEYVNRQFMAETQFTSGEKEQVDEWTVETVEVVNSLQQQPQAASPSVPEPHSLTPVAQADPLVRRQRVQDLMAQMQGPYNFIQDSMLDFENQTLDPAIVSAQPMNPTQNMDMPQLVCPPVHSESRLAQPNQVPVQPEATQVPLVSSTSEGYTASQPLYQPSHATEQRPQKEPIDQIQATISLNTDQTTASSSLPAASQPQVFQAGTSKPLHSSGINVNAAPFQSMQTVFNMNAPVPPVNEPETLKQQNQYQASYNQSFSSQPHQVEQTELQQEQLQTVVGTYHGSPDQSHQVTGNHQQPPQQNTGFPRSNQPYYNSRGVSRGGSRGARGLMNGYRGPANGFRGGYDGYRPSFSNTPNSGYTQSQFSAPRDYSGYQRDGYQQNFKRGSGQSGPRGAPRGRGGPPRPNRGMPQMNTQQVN

[2] = target: T2, peptide of SEQ ID NO: 69 (partial sequence in the polypeptide of SEQ ID NO: 37) (human); assay: ELISA on immobilised synthetic peptides
T2 peptide: QQPQAASPSVPE
Procedure: Each peptide was dissolved in 0.1M sodium carbonate buffer (pH 9.6) at a concentration of 30 μg/ml, added to a 96-well plate (Nunc, Product No. 436006) at 100 μl per well, and then left to stand at 4° C. overnight. The solution was discarded, 10 mM ethanolamine/0.1M sodium carbonate buffer (PH 9.6) was added at 200 μl per well, and then the plate was left to stand at room temperature for 1 hour. The solution was discarded, the plate was washed twice with PBS (PBST) containing 0.5% Tween20, so that the plate with each peptide immobilized thereto was prepared.
A cell culture supernatant containing the human-chicken chimeric monoclonal antibody (#1) and the mouse monoclonal antibodies (#2, #3, #4, #5, and #6) obtained in Example 4 (2) was added to the plate at 50 μl per well. After 1 hour of shaking at room temperature, the solution was removed, and then the plate was washed three times with PBST. Next, an HRP-labeled anti-human IgG (Invitrogen) antibody diluted 3000- to 4000-fold with PBST (a secondary antibody solution) was added to each well of the human-chicken chimeric monoclonal antibody and an HRP-labeled anti-mouse IgG (Invitrogen) antibody diluted 3000- to 4000-fold with PBST (a secondary antibody solution) was added to each well of the mouse monoclonal antibody, at 50 μl per well, and then the solution was removed, followed by six times of washing with PBST.
A TMB substrate solution (Thermo) was added at 100 μl per well, and the plate was left to stand for 15 to 30 minutes for coloring reaction. After color development, 1N sulfuric acid was added at 100 μl per well to stop the reaction and then absorbances at 450 nm and 595 nm were measured using an absorption spectrometer. As a result, the polypeptide of SEQ ID NO: 37 was identified as a CAPRIN-1 partial sequence that is recognized by all of the anti-CAPRIN-1 monoclonal antibodies #1 to #6. Furthermore, the peptide of SEQ ID NO: 69 was identified as a partial sequence in the above polypeptide of SEQ ID NO: 37, which is recognized by the monoclonal antibodies #1, #4, and #5. […]

binding result [2]: binds
B1: human-chicken chimeric antibody #1 having the chicken monoclonal antibody #1 variable region (antibody, V domains shown)
VH: AVTLDESGGGLQMSRGGLSLVCKASGFDFSSYQMNWIRQAPGKGLEFVAAINKFGNSTGHGAAVKGRVTISRDNGQSTVRLQLNNLRAEDTAIYFCTKHAYGYCGSGTWCAAGEIDAWGHGTEVIVSS
VL: QAASTQPSSVSANPGETVEITCSGGGSYSYGWFQQKSPGSAPVTVIYYNNKRPSDIPSRFSGSKSGSTGTLTITGVQADDEAVYYCGSGDSTDTAVFGAGTTLTVLG
notes: also called anti-CAPRIN-1 antibody #1; human-chicken chimeric monoclonal antibody (#1); not shown: human IgG1 H-chain constant region; human IgG1 L-chain constant region
cytotoxic activity (ADCC) against A549 [1]: 36.3% | cytotoxic activity (ADCC) against ACHN [1]: 26% | cytotoxic activity (ADCC) against AML5 [1]: 13.1% | cytotoxic activity (ADCC) against Caki-1 [1]: 27% | cytotoxic activity (ADCC) against KYSE180 [1]: 27.6% | cytotoxic activity (ADCC) against MDA-MB-157 [1]: 40% | cytotoxic activity (ADCC) against MNK28 [1]: 21.7% | cytotoxic activity (ADCC) against MNK45 [1]: 25.3% | cytotoxic activity (ADCC) against QG56 [1]: 33% | cytotoxic activity (ADCC) against Ramos [1]: 11.7% | cytotoxic activity (ADCC) against SW480 [1]: 26.9% | cytotoxic activity (ADCC) against SW756 [1]: 29.7% | cytotoxic activity (ADCC) against T24 [1]: 25.6% | cytotoxic activity (ADCC) against T98G [1]: 18% | cytotoxic activity (ADCC) against U373 [1]: 23.3%
